Measured values reported in the supplement of paper PMC12458215.
± gives the uncertainty stated by the source.

Test system: HEK293T
Assay: plasma membrane surface immunostaining intensity (anti-HA, deep receptor scanning) (arbitrary fluorescence units); higher = higher plasma membrane expression

| Sequence | plasma membrane surface immunostaining intensity (GPCR class: A) | other results |
| --- | --- | --- |
| MNPTDIADTTLDESIYSNYYLYESIPKPCTKEGIKAFGELFLPPLYSLVFVFGLLGNSVVVLVLFKYKRLRSMTDVYLLNLAISDLLFVFSLPFWGYYAADQWVFGLGLCKMISWMYLVGFYSGIFFVMLMSIDRYLAIVHAVFSLRARTLTYGVITSLATWSVAVFASLPGFLFSTCYTERNHTYCKTKYSLNSTTWKVLSSLEINILGLVIPLGIMLFCYSMIIRTLQHCKNEKKNKAVKMIFAVVVLFLGFWTPYNIVLFLETLVELEVLQDCTFERYLDYAIQATETLAFVHCCLNPIIYFFLGEKFRKYILQLFKTCRGLFVLCQYCGLLQIYSADTPSSSYTQSTMDHDLHDAL [CCR4] | 186 ± 14 | – |
| MEEGGDFDNYYGADNQSECEYTDWKSSGALIPAIYMLVFLLGTTGNGLVLWTVFRSSREKRRSADIFIASLAVADLTFVVTLPLWATYTYRDYDWPFGTFFCKLSSYLIFVNMYASVFCLTGLSFDRYLAIVRPVANARLRLRVSGAVATAVLWVLAALLAMPVMVLRTTGDLENTTKVQCYMDYSMVATVSSEWAWEVGLGVSSTTVGFVVPFTIMLTCYFFIAQTIAGHFRKERIEGLRKRRRLLSIIVVLVVTFALCWMPYHLVKTLYMLGSLLHWPCDFDLFLMNIFPYCTCISYVNSCLNPFLYAFFDPRFRQACTSMLCCGQSRCAGTSHSSSGEKSASYSSGHSQGPGPNMGKGGEQMHEKSIPYSQETLVVD [APLNR] | 6400 ± 84 | – |
| MGNCLHRAELSPSTENSSQLDFEDVWNSSYGVNDSFPDGDYGANLEAAAPCHSCNLLDDSALPFFILTSVLGILASSTVLFMLFRPLFRWQLCPGWPVLAQLAVGSALFSIVVPVLAPGLGSTRSSALCSLGYCVWYGSAFAQALLLGCHASLGHRLGAGQVPGLTLGLTVGIWGVAALLTLPVTLASGASGGLCTLIYSTELKALQATHTVACLAIFVLLPLGLFGAKGLKKALGMGPGPWMNILWAWFIFWWPHGVVLGLDFLVRSKLLLLSTCLAQQALDLLLNLAEALAILHCVATPLLLALFCHQATRTLLPSLPLPEGWSSHLDTLGSKS [ACKR1] | 5030 ± 340 | – |
| MPIMGSSVYITVELAIAVLAILGNVLVCWAVWLNSNLQNVTNYFVVSLAAADIAVGVLAIPFAITISTGFCAACHGCLFIACFVLVLTQSSIFSLLAIAIDRYIAIRIPLRYNGLVTGTRAKGIIAICWVLSFAIGLTPMLGWNNCGQPKEGKNHSQGCGEGQVACLFEDVVPMNYMVYFNFFACVLVPLLLMLGVYLRIFLAARRQLKQMESQPLPGERARSTLQKEVHAAKSLAIIVGLFALCWLPLHIINCFTFFCPDCSHAPLWLMYLAIVLSHTNSVVNPFIYAYRIREFRQTFRKIIRSHVLRQQEPFKAAGTSARVLAAHGSDGEQVSLRLNGHPPGVWANGSAPHPERRPNGYALGLVSGGSAQESQGNTGLPDVELLSHELKGVCPEPPGLDDPLAQDGAGVS [ADORA2A] | 5780 ± 120 | – |
| MGDNITSIREFLLLGFPVGPRIQMLLFGLFSLFYVFTLLGNGTILGLISLDSRLHAPMYFFLSHLAVVDIAYACNTVPRMLVNLLHPAKPISFAGRMMQTFLFSTFAVTECLLLVVMSYDLYVAICHPLRYLAIMTWRVCITLAVTSWTTGVLLSLIHLVLLLPLPFCRPQKIYHFFCEILAVLKLACADTHINENMVLAGAISGLVGPLSTIVVSYMCILCAILQIQSREVQRKAFRTCFSHLCVIGLVYGTAIIMYVGPRYGNPKEQKKYLLLFHSLFNPMLNPLICSLRNSEVKNTLKRVLGVERAL [OR2A4] | – | plasma membrane surface immunostaining intensity (GPCR class: A (Olfactory)): 123 ± 3.7 |
| MEAANESSEGISFVLLGLTTSPGQQRPLFVLFLLLYVASLLGNGLIVAAIQASPALHAPMYFLLAHLSFADLCFASVTVPKMLANLLAHDHSISLAGCLTQMYFFFALGVTDSCLLAAMAYDCYVAIRHPLPYATRMSRAMCAALVGMAWLVSHVHSLLYILLMARLSFCASHQVPHFFCDHQPLLRLSCSDTHHIQLLIFTEGAAVVVTPFLLILASYGAIAAAVLQLPSASGRLRAVSTCGSHLAVVSLFYGTVIAVYFQATSRREAEWGRVATVMYTVVTPMLNPIIYSLWNRDVQGALRALLIGRRISASDS [OR1K1] | – | plasma membrane surface immunostaining intensity (GPCR class: A (Olfactory)): 223 ± 69 |
| MDTGPDQSYFSGNHWFVFSVYLLTFLVGLPLNLLALVVFVGKLQRRPVAVDVLLLNLTASDLLLLLFLPFRMVEAANGMHWPLPFILCPLSGFIFFTTIYLTALFLAAVSIERFLSVAHPLWYKTRPRLGQAGLVSVACWLLASAHCSVVYVIEFSGDISHSQGTNGTCYLEFRKDQLAILLPVRLEMAVVLFVVPLIITSYCYSRLVWILGRGGSHRRQRRVAGLLAATLLNFLVCFGPYNVSHVVGYICGESPAWRIYVTLLSTLNSCVDPFVYYFSSSGFQADFHELLRRLCGLWGQWQQESSMELKEQKGGEEQRADRPAERKTSEHSQGCGTGGQVACAES [FFAR3] | 6440 ± 110 | – |
| MQAALTAFFVLLFSLLSLLGIAANGFIVLVLGREWLRYGRLLPLDMILISLGASRFCLQLVGTVHNFYYSAQKVEYSGGLGRQFFHLHWHFLNSATFWFCSWLSVLFCVKIANITHSTFLWLKWRFPGWVPWLLLGSVLISFIITLLFFWVNYPVYQEFLIRKFSGNMTYKWNTRIETYYFPSLKLVIWSIPFSVFLVSIMLLINSLRRHTQRMQHNGHSLQDPSTQAHTRALKSLISFLILYALSFLSLIIDAAKFISMQNDFYWPWQIAVYLCISVHPFILIFSNLKLRSVFSQLLLLARGFWVA [TAS2R41] | – | plasma membrane surface immunostaining intensity (GPCR class: Taste): 129 ± 20 |
| MINSTSTQPPDESCSQNLLITQQIIPVLYCMVFIAGILLNGVSGWIFFYVPSSKSFIIYLKNIVIADFVMSLTFPFKILGDSGLGPWQLNVFVCRVSAVLFYVNMYVSIVFFGLISFDRYYKIVKPLWTSFIQSVSYSKLLSVIVWMLMLLLAVPNIILTNQSVREVTQIKCIELKSELGRKWHKASNYIFVAIFWIVFLLLIVFYTAITKKIFKSHLKSSRNSTSVKKKSSRNIFSIVFVFFVCFVPYHIARIPYTKSQTEAHYSCQSKEILRYMKEFTLLLSAANVCLDPIIYFFLCQPFREILCKKLHIPLKAQNDLDISRIKRGNTTLESTDTL [P2RY14] | 5190 ± 71 | – |
| MLNTTSVTEFLLLGVTDIQELQPFLFVVFLTIYFISVTGNGAVLMIVISDPRLHSLMYFFLGNLSYLDICYSTVTLPKMLQNFLSTHKAISFLGCISQLHFFHSLGSTESMLFAVMAFDLSVAICKPLRYTVIMNPQLCTQMAITIWVIGFFHALLHSVMTSRLNFCGSNRIHHFLCDIKPLLKLACGNTELNQWLLSTVTGTIAMGPFFLTLLSYFYIITYLFFKTRSCSMLCKALSTCASHFMVVILFYAPVLFTYIHPALESFMDQDRIVAIMYTVVTPVLNPLIYTLRNKEVKGALGRVIRRL [OR12D2] | – | plasma membrane surface immunostaining intensity (GPCR class: A (Olfactory)): 126 ± 22 |
| MKMKSQATMICCLVFFLSTECSHYRSKIHLKAGDKLQSPEGKPKTGRIQEKCEGPCISSSNCSQPCAKDFHGEIGFTCNQKKWQKSAETCTSLSVEKLFKDSTGASRLSVAAPSIPLHILDFRAPETIESVAQGIRKNCPFDYACITDMVKSSETTSGNIAFIVELLKNISTDLSDNVTREKMKSYSEVANHILDTAAISNWAFIPNKNASSDLLQSVNLFARQLHIHNNSENIVNELFIQTKGFHINHNTSEKSLNFSMSMNNTTEDILGMVQIPRQELRKLWPNASQAISIAFPTLGAILREAHLQNVSLPRQVNGLVLSVVLPERLQEIILTFEKINKTRNARAQCVGWHSKKRRWDEKACQMMLDIRNEVKCRCNYTSVVMSFSILMSSKSMTDKVLDYITCIGLSVSILSLVLCLIIEATVWSRVVVTEISYMRHVCIVNIAVSLLTANVWFIIGSHFNIKAQDYNMCVAVTFFSHFFYLSLFFWMLFKALLIIYGILVIFRRMMKSRMMVIGFAIGYGCPLIIAVTTVAITEPEKGYMRPEACWLNWDNTKALLAFAIPAFVIVAVNLIVVLVVAVNTQRPSIGSSKSQDVVIIMRISKNVAILTPLLGLTWGFGIATLIEGTSLTFHIIFALLNAFQGFFILLFGTIMDHKIRDALRMRMSSLKGKSRAAENASLGPTNGSKLMNRQG [ADGRF4] | – | plasma membrane surface immunostaining intensity (GPCR class: B): 386 ± 78 |
| MKLWMESHLIVPETRPSPRMMSNQTLVTEFILQGFSEHPEYRVFLFSCFLFLYSGALTGNVLITLAITFNPGLHAPMYFFLLNLATMDIICTSSIMPKALASLVSEESSISYGGCMAQLYFLTWAASSELLLLTVMAYDRYAAICHPLHYSSMMSKVFCSGLATAVWLLCAVNTAIHTGLMLRLDFCGPNVIIHFFCEVPPLLLLSCSSTYVNGVMIVLADAFYGIVNFLMTIASYGFIVSSILKVKTAWGRQKAFSTCSSHLTVVCMYYTAVFYAYISPVSGYSAGKSKLAGLLYTVLSPTLNPLIYTLRNKEVKAALRKLFPFFRN [OR13A1] | – | plasma membrane surface immunostaining intensity (GPCR class: A (Olfactory)): 120 ± 26 |
| MDSFNYTTPDYGHYDDKDTLDLNTPVDKTSNTLRVPDILALVIFAVVFLVGVLGNALVVWVTAFEAKRTINAIWFLNLAVADFLSCLALPILFTSIVQHHHWPFGGAACSILPSLILLNMYASILLLATISADRFLLVFKPIWCQNFRGAGLAWIACAVAWGLALLLTIPSFLYRVVREEYFPPKVLCGVDYSHDKRRERAVAIVRLVLGFLWPLLTLTICYTFILLRTWSRRATRSTKTLKVVVAVVASFFIFWLPYQVTGIMMSFLEPSSPTFLLLKKLDSLCVSFAYINCCINPIIYVVAGQGFQGRLRKSLPSLLRNVLTEESVVRESKSFTRSTVDTMAQKTQAV [C5AR1] | 6196 ± 24 | – |
| MDNVLPVDSDLSPNISTNTSEPNQFVQPAWQIVLWAAAYTVIVVTSVVGNVVVMWIILAHKRMRTVTNYFLVNLAFAEASMAAFNTVVNFTYAVHNEWYYGLFYCKFHNFFPIAAVFASIYSMTAVAFDRYMAIIHPLQPRLSATATKVVICVIWVLALLLAFPQGYYSTTETMPSRVVCMIEWPEHPNKIYEKVYHICVTVLIYFLPLLVIGYAYTVVGITLWASEIPGDSSDRYHEQVSAKRKVVKMMIVVVCTFAICWLPFHIFFLLPYINPDLYLKKFIQQVYLAIMWLAMSSTMYNPIIYCCLNDRFRLGFKHAFRCCPFISAGDYEGLEMKSTRYLQTQGSVYKVSRLETTISTVVGAHEEEPEDGPKATPSSLDLTSNCSSRSDSKTMTESFSFSSNVLS [TACR1] | 6280 ± 110 | – |
| MSNITDPQMWDFDDLNFTGMPPADEDYSPCMLETETLNKYVVIIAYALVFLLSLLGNSLVMLVILYSRVGRSVTDVYLLNLALADLLFALTLPIWAASKVNGWIFGTFLCKVVSLLKEVNFYSGILLLACISVDRYLAIVHATRTLTQKRHLVKFVCLGCWGLSMNLSLPFFLFRQAYHPNNSSPVCYEVLGNDTAKWRMVLRILPHTFGFIVPLFVMLFCYGFTLRTLFKAHMGQKHRAMRVIFAVVLIFLLCWLPYNLVLLADTLMRTQVIQESCERRNNIGRALDATEILGFLHSCLNPIIYAFIGQNFRHGFLKILAMHGLVSKEFLARHRVTSYTSSSVNVSSNL [CXCR1] | 5900 ± 170 | – |
| MASSWPPLELQSSNQSQLFPQNATACDNAPEAWDLLHRVLPTFIISICFFGLLGNLFVLLVFLLPRRQLNVAEIYLANLAASDLVFVLGLPFWAENIWNQFNWPFGALLCRVINGVIKANLFISIFLVVAISQDRYRVLVHPMASRRQQRRRQARVTCVLIWVVGGLLSIPTFLLRSIQAVPDLNITACILLLPHEAWHFARIVELNILGFLLPLAAIVFFNYHILASLRTREEVSRTRCGGRKDSKTTALILTLVVAFLVCWAPYHFFAFLEFLFQVQAVRGCFWEDFIDLGLQLANFFAFTNSSLNPVIYVFVGRLFRTKVWELYKQCTPKSLAPISSSHRKEIFQLFWRN [BDKRB1] | 976 ± 180 | – |
